Biological target: NF-κB protein p65 (endogenous) (human (endogenous in PC-3)), Q04206
Experiment: immuno-depletion
Conditions: remark: other sources report otherwise

NF-κB protein p65 (endogenous) (human (endogenous in PC-3)), Q04206, sequence (Q04206 whole entry): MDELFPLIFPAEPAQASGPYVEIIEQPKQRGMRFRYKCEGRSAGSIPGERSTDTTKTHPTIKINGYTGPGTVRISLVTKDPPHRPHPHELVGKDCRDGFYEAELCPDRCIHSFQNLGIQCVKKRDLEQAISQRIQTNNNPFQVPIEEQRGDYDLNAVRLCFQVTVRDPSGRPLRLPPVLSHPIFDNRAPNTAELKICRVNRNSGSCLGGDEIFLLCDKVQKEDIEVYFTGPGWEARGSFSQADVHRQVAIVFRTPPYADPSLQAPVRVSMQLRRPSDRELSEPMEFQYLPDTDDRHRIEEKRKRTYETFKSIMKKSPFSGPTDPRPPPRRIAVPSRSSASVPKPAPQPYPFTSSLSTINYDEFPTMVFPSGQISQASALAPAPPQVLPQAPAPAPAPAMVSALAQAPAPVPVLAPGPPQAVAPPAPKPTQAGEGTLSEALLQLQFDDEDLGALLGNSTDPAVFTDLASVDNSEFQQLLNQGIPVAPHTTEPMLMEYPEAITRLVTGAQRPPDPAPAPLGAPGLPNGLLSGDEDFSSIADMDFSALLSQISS

B1: IκBα (endogenous), P25963 1-317 (natural protein)
chain: MFQAAERPQEWAMEGPRDGLKKERLLDDRHDSGLDSMKDEEYEQMVKELQEIRLEPQEVPRGSEPWKQQLTEDGDSFLHLAIIHEEKALTMEVIRQVKGDLAFLNFQNNLQQTPLHLAVITNQPEIAEALLGAGCDPELRDFRGNTPLHLACEQGCLASVGVLTQSCTTPHLHSILKATNYNGHTCLHLASIHGYLGIVELLVSLGADVNAQEPCNGRTALHLAVDLQNPDLVSLLLKCGADVNRVTYQGYSPYQLTWGRPSTRIQQQLGQLTLENLQMLPESEDEESYDTESEFTEFTEDELPYDDCVFGGQRLTL
A percent of IκBα bound to p65 of 63% was found for B1 in this work.

Source: PMC8968458
